Experimental data from patent US20250313641A1 (Amgen, published 2025).
Where a chain is given by its changes, count along the chain named. In names and notes the source's numbering stands.

T1: human IL-2 receptor (IL-2R) on human PBMC subsets (human, UniProt P14784 27-551; P31785 23-369)
T1 sequence 1: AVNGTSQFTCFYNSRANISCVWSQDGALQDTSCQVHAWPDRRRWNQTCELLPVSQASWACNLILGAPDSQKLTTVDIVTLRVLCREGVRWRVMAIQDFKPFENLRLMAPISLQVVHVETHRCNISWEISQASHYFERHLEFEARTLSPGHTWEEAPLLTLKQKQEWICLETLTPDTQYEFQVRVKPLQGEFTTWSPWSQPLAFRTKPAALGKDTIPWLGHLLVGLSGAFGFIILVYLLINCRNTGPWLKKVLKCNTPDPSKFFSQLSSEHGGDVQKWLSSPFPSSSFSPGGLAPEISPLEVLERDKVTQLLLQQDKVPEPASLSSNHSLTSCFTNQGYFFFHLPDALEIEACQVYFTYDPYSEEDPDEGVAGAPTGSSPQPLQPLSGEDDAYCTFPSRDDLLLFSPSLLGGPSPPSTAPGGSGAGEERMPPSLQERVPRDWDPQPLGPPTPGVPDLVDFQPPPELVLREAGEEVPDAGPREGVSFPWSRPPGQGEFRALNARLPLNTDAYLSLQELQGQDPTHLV
T1 sequence 2: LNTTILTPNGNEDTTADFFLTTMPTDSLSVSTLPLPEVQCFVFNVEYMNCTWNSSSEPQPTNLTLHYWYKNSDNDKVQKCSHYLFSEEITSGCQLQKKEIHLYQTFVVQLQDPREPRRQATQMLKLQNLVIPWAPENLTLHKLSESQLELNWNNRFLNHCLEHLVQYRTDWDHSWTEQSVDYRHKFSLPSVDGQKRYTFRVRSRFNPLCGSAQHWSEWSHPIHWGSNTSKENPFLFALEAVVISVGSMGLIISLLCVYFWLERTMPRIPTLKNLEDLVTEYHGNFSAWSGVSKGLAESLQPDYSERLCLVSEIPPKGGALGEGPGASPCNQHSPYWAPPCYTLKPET

T2: cynomolgus monkey IL-2 receptor (IL-2R) on cyno PBMC subsets (cynomolgus monkey, UniProt Q38J85 27-551; A0A2K5VGJ6 23-369)
T2 sequence (looked up) 1: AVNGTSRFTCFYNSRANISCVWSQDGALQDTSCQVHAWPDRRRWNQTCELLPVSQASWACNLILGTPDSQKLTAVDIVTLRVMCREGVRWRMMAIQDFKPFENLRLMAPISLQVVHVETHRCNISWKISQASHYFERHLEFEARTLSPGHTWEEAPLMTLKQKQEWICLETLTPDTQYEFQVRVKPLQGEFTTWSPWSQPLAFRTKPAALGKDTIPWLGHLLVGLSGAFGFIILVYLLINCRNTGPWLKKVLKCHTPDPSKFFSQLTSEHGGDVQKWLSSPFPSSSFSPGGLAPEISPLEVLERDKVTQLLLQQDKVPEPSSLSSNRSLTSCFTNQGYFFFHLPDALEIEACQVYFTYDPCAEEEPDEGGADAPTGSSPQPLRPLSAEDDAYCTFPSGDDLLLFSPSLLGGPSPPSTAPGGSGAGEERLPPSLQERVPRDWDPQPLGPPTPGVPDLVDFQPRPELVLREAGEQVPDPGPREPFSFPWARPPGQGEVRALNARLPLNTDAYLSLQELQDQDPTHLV
T2 sequence (looked up) 2: T1 sequence 2 with T14A, A16T, T22S, H141R, T228S, A326P

B1: HCAb1 (bispecific antibody, IgG1)
heavy 1: not shown
heavy 2: QVQLVESGGGLVKPGGSLRLSCAASGFTFSDYYMSWIRQAPGKGLEWVSYISSSGSTIYYADSVKGRFTISRDNAKNSLYLQMNSLRAEDTAVYYCARGDAVSITGDYRGQGTLVTVSSGGGGDKTHTCPPCPAPELLGGPSVFLFPPKPKDTLMISRTPEVTCVVVDVSHEDPEVKFNWYVDGVEVHNAKTKPCEEQYGSTYRCVSVLTVLHQDWLNGKEYKCKVSNKALPAPIEKTISKAKGQPREPQVYTLPPSRKEMTKNQVSLTCLVKGFYPSDIAVEWESNGQPENNYKTTPPVLKSDGSFFLYSKLTVDKSRWQQGNVFSCSVMHEALHNHYTQKSLSLSPGK
notes: Heavy-chain antibody without light chains, made of two different heavy chains; The IgG1-derived Fc carries SEFL2.2 mutations (R292C, N297G, V302C) and charge-pair substitutions; also called anti-IL2RBG heavy-chain antibody
B2: HCAb2 (bispecific antibody, human IgG4 S228P, F234A L235A)
heavy 1: QVQLQESSPGLVKPSETLSLTCTVSGGSISSSNWWSWVRQPPGKGLEWIGEISHSGSTNYNPSLKSRVTISVDKSKNQFSLRLSSVTAADTAVYFCGRGSWELTDAFDIRGQGTLVTVSSESKYGPPCPPCPAPEAAGGPSVFLFPPKPKDTLMISRTPEVTCVVVDVSQEDPEVQFNWYVDGVEVHNAKTKPREEQFNSTYRVVSVLTVLHQDWLNGKEYKCKVSNKGLPSSIEKTISKAKGQPREPQVYTLPPSQEEMTKNQVSLSCAVKGFYPSDIAVEWESNGQPENNYKTTPPVLDSDGSFFLVSRLTVDKSRWQEGNVFSCSVMHEALHNHYTQKSLSLSLGK
heavy 2: QVQLVESGGGLVKPGGSLRLSCAASGFTFSDYYMSWIRQAPGKGLEWVSYISSSGSTIYYADSVKGRFTISRDNAKNSLYLQMNSLRAEDTAVYYCARGDAVSITGDYRGQGTLVTVSSESKYGPPCPPCPAPEAAGGPSVFLFPPKPKDTLMISRTPEVTCVVVDVSQEDPEVQFNWYVDGVEVHNAKTKPREEQFNSTYRVVSVLTVLHQDWLNGKEYKCKVSNKGLPSSIEKTISKAKGQPREPQVYTLPPSQEEMTKNQVSLWCLVKGFYPSDIAVEWESNGQPENNYKTTPPVLDSDGSFFLYSRLTVDKSRWQEGNVFSCSVMHEALHNHYTQKSLSLSLGK

Experiments:
[1] = biological target: T1, human IL-2 receptor (IL-2R) on human …; assay: cell-based or functional assay
[2] = biological target: T1, human IL-2 receptor (IL-2R) on human …; assay: cell-based or functional assay; remark: listed apart in the source
[3] = biological target: T2, cynomolgus monkey IL-2 receptor (IL-2R) …; assay: cell-based or functional assay
[4] = biological target: T1, human IL-2 receptor (IL-2R) on human …; assay: cell-based or functional assay; remark: listed apart in the source
[5] = biological target: T2, cynomolgus monkey IL-2 receptor (IL-2R) …; assay: cell-based or functional assay; remark: listed apart in the source
[6] = biological target: T1, human IL-2 receptor (IL-2R) on human …; assay: cell-based or functional assay; remark: listed apart in the source
[7] = biological target: T1, human IL-2 receptor (IL-2R) on human …; assay: Flow cytometry on human PBMCs gated on CD4+ T-cells; detection with goat F(ab')2 anti-human IgG-PE; gMFI as fold over background
Method: (§1) All washes and dilutions of cells, antibodies, and reagents were performed using flow buffer (1×PBS, 1% BSA, 0.1% NaN3, pH 7.4). All incubations were performed at 4° C. or on ice. Freshly thawed PBMCs were seeded at 100,000 cells/well in a 96-well round bottom plate (Corning) and incubated for 30 minutes with serially diluted test articles in a total volume of 50 μL. Cells were washed twice with 200 μL flow buffer and subsequently stained with a 0.625 μg/mL Goat F (ab′) 2 Anti-Human IgG-PE (Southern Biotech) secondary detection antibody. Fluorescently conjugated anti-CD3 (OKT3), CD4 (OKT4), CD8 (RPA-T8), CD25 (M-A251), CD127 (A019D5), and CD56 (HCD56) antibodies (BioLegend) were also included at 1:20 dilution to enable the characterization of T-cell and NK cell populations. Following a 30-minute incubation, and 2 more washes, the cells were resuspended in a final volume of 120 μL of flow buffer containing 7-AAD viability dye. The cells were analyzed on a BD FACSCelesta™, maximum events were collected, and geometric mean fluorescence intensity was plotted as a fold-over-background (cells incubated with secondary detection antibody and cell lineage marker stains only).
(§2) Cell binding was determined by flow cytometry and reported as geometric mean fluorescent intensity (gMFI) over the gMFI of cells stained only with secondary detection antibody.

[8] = biological target: T1, human IL-2 receptor (IL-2R) on human …; assay: Flow cytometry on human PBMCs gated on CD8+ T-cells; detection with goat F(ab')2 anti-human IgG-PE; gMFI as fold over background
Method: as §1, §2

[9] = biological target: T2, cynomolgus monkey IL-2 receptor (IL-2R) …; assay: Flow cytometry on cynomolgus PBMCs gated on CD3-CD159a+ NK cells; detection with anti-human IgG-PE; gMFI as fold over background
[10] = biological target: T2, cynomolgus monkey IL-2 receptor (IL-2R) …; assay: Flow cytometry on cynomolgus PBMCs gated on CD4+CD25+CD127lo T-regs; detection with anti-human IgG-PE; gMFI as fold over background
[11] = biological target: T1, human IL-2 receptor (IL-2R) on human …; assay: Flow cytometry on human PBMCs gated on CD3-CD56+ NK cells; detection with goat F(ab')2 anti-human IgG-PE; gMFI as fold over background
Method: as §1, §2

[12] = biological target: T1, human IL-2 receptor (IL-2R) on human …; assay: Flow cytometry on human PBMCs gated on CD4+CD25+CD127lo T-regs; detection with goat F(ab')2 anti-human IgG-PE; gMFI as fold over background
Method: as §1, §2

| Binder | pSTAT5 (Human) EC50 [nM], CD4^+ T-cell [4] [nM] | pSTAT5 (Human) EC50 [nM], CD4^+CD25^+ T-regs [4] [nM] | pSTAT5 (Human) EC50 [nM], CD8^+ T-cell [4] [nM] | pSTAT5 (Cyno) EC50 [nM], CD4^+ T-cell [5] [nM] | pSTAT5 (Cyno) EC50 [nM], CD4^+CD25^+ T-regs [5] [nM] | pSTAT5 (Cyno) EC50 [nM], CD8^+ T-cell [5] [nM] | Ki67 (Human) EC50 [nM], CD4^+ T-cell [6] [nM] | Ki67 (Human) EC50 [nM], CD4^+CD25^+ T-regs [6] [nM] | Ki67 (Human) EC50 [nM], CD8^+ T-cell [6] [nM] | further results |
| --- | --- | --- | --- | --- | --- | --- | --- | --- | --- | --- |
| B1 | 34.9 | 10.7 | 21.5 | 7.72 | 5.37 | 3.31 | 23.7 | 9.26 | 25.1 | pSTAT5 (Human) EC50 [nM], CD4^+ T cells [1]: 22.9 nM; pSTAT5 (Human) EC50 [nM], CD8^+ T cells [1]: 15.5 nM; pSTAT5 (Human) EC50 [nM], NK cells [1]: 8.77 nM; pSTAT5 (Human) EC50 [nM], T-regs [1]: 13.1 nM; Ki67 (Human) EC50 [nM], CD4^+ T cells [2]: 13.2 nM; Ki67 (Human) EC50 [nM], CD8^+ T cells [2]: 5.17 nM; Ki67 (Human) EC50 [nM], NK cells [2]: 7.34 nM; Ki67 (Human) EC50 [nM], T-regs [2]: 0.81 nM; Ki67 (Cyno) EC50 [nM], CD4^+ T cells [3]: 14.7 nM; Ki67 (Cyno) EC50 [nM], CD8^+ T cells [3]: 14.8 nM; Ki67 (Cyno) EC50 [nM], NK cells [3]: 5.97 nM; Ki67 (Cyno) EC50 [nM], T-regs [3]: 1.25 nM; EC50 (read off the curve) [7]: ~30 nM; EC50 (read off the curve) [8]: ~20 nM; EC50 (read off the curve) [9]: ~2 nM; EC50 (read off the curve) [10]: ~8 nM; EC50 (read off the curve) [11]: ~2 nM; EC50 (read off the curve) [12]: ~10 nM |
| B2 | 44.6 | 13.2 | 24 | 9.36 | 4.29 | 3.13 | 23.9 | 14.6 | 36.5 | – |
